Consider 3 molecules from patent US20200181239A1.

The target of one data set is canine PD-L1 (canine). The data set is described as follows: competition ELISA: biotinylated canine PD-L1 pre-incubated with the inhibitor, then bound to coated canine PD-1, streptavidin-HRP. Background: ELISA stands for enzyme-linked immunosorbent assay.
For a further data set, the target named is papain (UniProt P00784).
Data set [1] has as its target T1, human Stefin A (wild type human Cystatin A).
T1 chain: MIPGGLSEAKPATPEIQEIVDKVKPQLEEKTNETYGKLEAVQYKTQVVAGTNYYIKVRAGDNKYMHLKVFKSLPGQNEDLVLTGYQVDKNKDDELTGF

As to canine PD-1 (receptor), the IC50 (read off the curve) in the data set with canine PD-L1 (canine) is 20 nM.
In the data set with papain, “human Stefin A (wild type human Cystatin A) (from UniProt P01040 1-98)” showed an IC50 (read off the curve) of 1 nM.

B1: papain (protein)
chain: IPEYVDWRQKGAVTPVKNQGSCGSCWAFSAVVTIEGIIKIRTGNLNEYSEQELLDCDRRSYGCNGGYPWSALQLVAQYGIHYRNTYPYEGVQRYCRSREKGPYAAKTDGVRQVQPYNEGALLYSIANQPVSVVLEAAGKDFQLYRGGIFVGPCGNKVDHAVAAVGYGPNYILIKNSWGTGWGENGYIRIKRGTGNSYGVCGLYTSSFYPVKN
Turning to B1, in data set [1], the “papain activity assay: fluorescence (excitation 380 nm, emission 460 nm) from the substrate N-Carbobenzyloxy-Phe-Arg-7-amido-4-methylcoumarin” value is listed as “hSteA is a potent inhibitor of papain”.
